In patent publication WO2020228604A1 (dated 2020):

T1: human TROP-2 protein with His tag (TROP-2-His) (human, UniProt P09758 27-274)
T1 construct: Bought reagent (Sino Biological 10428-H08H); also called TROP-2His protein; human TROP-2 His antigen; not shown: His tag
T1 sequence (looked up): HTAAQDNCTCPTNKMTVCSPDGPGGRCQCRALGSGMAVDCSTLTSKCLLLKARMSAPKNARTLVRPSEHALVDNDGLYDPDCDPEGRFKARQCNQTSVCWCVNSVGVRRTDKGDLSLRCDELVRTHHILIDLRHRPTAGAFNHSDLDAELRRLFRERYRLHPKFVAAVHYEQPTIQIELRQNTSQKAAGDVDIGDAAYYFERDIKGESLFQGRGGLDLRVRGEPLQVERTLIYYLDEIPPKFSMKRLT


Experiments:
[1] = target: T1, human TROP-2 protein with His tag …; assay: competition ELISA; competitor: coated hRS7; test antibody diluted to 100 ug/ml and added with TROP-2-His
[2] = target: T1, human TROP-2 protein with His tag …; assay: indirect ELISA, TROP-2-His coated at 1 ug/ml

Row | Binder | inhibition rate [1] [%] | EC50 [2] [nM]
1 | humanized anti-TROP-2 antibody HU6 (antibody, V domains shown) VH: EVQLLESGGGLVQPGGSLRLSCAASGFTVSNYWMNWVRQAPGKGLEWMGRIDPNDSETHYNQKFKDRVTISVDKSKNQFSLKLSSVTAADTAVYYCARSGFGSTYWFFDVWGQGTTVTVSS VL: DVVMTQSPLSLPVTLGQPASISCKASQDVSTAVAWYQQKPGKAPKLFIYSASYRYTGVPSRFSGSGSGTDFTLTISSLQPEDFATYYCQQHYSTPLTFGQGTRLEIK | 6.7 | –
2 | humanized anti-TROP-2 antibody HU6DL (antibody, V domains shown) VH: EVQLLESGGGLVQPGGSLRLSCAASGFTVSNYWMNWVRQAPGKGLEWMGRIDPNDSETHYNQKFKDRVTISVDKSKNQFSLKLSSVTAADTAVYYCARSGFGSTYWFFDVWGQGTTVTVSS VL: DVVMTQSPLSLPVTLGQPASISCKASQDVSTAVAWYQQKPGKAPKLFIYSASYRYTGVPSRFSGSGSGTDFTLTISSLQPEDFATYYCQQHYSTPLTFGQGTRLEIK | 5.9 | –
3 | humanized anti-TROP-2 antibody HU1 (antibody, V domains shown) VH: QVQLVQSGAEVKKPGSSVKVSCKASGYTFTNYWMNWVRQAPGKGLEWVGRIDPNDSETHYNQKFKDRFTITRDNSKNTLYLQMNSLRAEDTAVYYCARSGFGSTYWFFDVWGQGTTVTVSS VL: AIRMTQSPFSLSASVGDRVTITCKASQDVSTAVAWYLQKPGQSPQLLIYSASYRYTRIPPRFSGSGYGTDFTLTINNIESEDAAYYFCQQHYSTPLTFGQGTRLEIK | 13.5 | –

Further lines, results first:

Row | inhibition rate [1] [%] | EC50 [2] [nM] | Binder
4 | 10.2 | – | humanized anti-TROP-2 antibody HU10 (antibody, V domains shown) VH: QVQLVQSGAEVKKPGSSVKVSCKASGYTFTNYWMNWVRQAPGKGLEWVGRIDPNDSETHYNQKFKDRFTITRDNSKNTLYLQMNSLRAEDTAVYYCARSGFGSTYWFFDVWGQGTTVTVSS VL: AIRMTQSPFSLSASVGDRVTITCKASQDVSTAVAWYLQKPGQSPQLLIYSASYRYTRIPPRFSGSGYGTDFTLTINNIESEDAAYYFCQQHYSTPLTFGQGTRLEIK
5 | – | 0.56 | murine monoclonal antibody M1 (antibody, V domains shown) VH: QVQLQQPGAELVRPGASVKLSCRASGYTFTNYWMNWVKQRPEQGLEWIGRIDPNDSETHYNQKFKDRAILTVDKASNTAYMQLSGLTSEDSAVHYCARSGFGSTYWFFDVWGAGTTVTVSS VL: DIVMTQSHKFMSTSVGDRVSITCKASQDVSTAVAWYQQKPGQSPKLLIYSASYRYTGVPDRFAGSGYGTDFTFTISSVQTEDLTVYHCQQHYSTPLTFGPGTRLELK
